Source: article PMC12416549 (2024)
Positions count from the first letter of the chain named. Names and notes keep the numbering of the source.

Biological target: T1, TNFR1 (Homo sapiens, UniProt P19438)
T1 chain: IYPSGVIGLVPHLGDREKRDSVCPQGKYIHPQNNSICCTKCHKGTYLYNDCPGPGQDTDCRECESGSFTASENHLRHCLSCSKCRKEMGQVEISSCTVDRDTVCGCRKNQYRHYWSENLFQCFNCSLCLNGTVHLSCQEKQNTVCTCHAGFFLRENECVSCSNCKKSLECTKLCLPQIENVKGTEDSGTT
Experiment: yeast display SC50

B1: L82Y (designed binder)
chain: MTLQELLREEALRRAEAEAFRYALELLAEKFPEQKEYLLDLAEEIESQIRSLSGVDVEDVRKFLDKEWAWVKELLAEHPAEYAEVEAARAARLAELRAEVEAKVAA
  apparent Kd (screen): 0.718 nM

B2: L52D (designed binder)
chain: B1 chain with L52D, Y82L
  apparent Kd (screen): 24.4 nM

B3: D40G (designed binder)
chain: B1 chain with D40G, Y82L
  apparent Kd (screen): 1.05 nM

B4: E25M (designed binder)
chain: B1 chain with E25M, Y82L
  apparent Kd (screen): 0.368 nM

B5: E33Q (designed binder)
chain: B1 chain with E33Q, Y82L
  apparent Kd (screen): 0.49 nM

B6: P32M (designed binder)
chain: B1 chain with P32M, Y82L
  apparent Kd (screen): 1.4 nM

B7: W68F (designed binder)
chain: B1 chain with W68F, Y82L
  apparent Kd (screen): 0.539 nM

B8: E84A (designed binder)
chain: B1 chain with Y82L, E84A
  apparent Kd (screen): 0.718 nM

B9: P79C (designed binder)
chain: B1 chain with P79C, Y82L
  apparent Kd (screen): 0.718 nM

B10: K62S (designed binder)
chain: B1 chain with K62S, Y82L
  apparent Kd (screen): 0.539 nM

B11: E86C (designed binder)
chain: B1 chain with Y82L, E86C
  apparent Kd (screen): 0.653 nM

B12: E77M (designed binder)
chain: B1 chain with E77M, Y82L
  apparent Kd (screen): 0.593 nM

B13: E10A (designed binder)
chain: B1 chain with E10A, Y82L
  apparent Kd (screen): 5.31 nM

B14: L39M (designed binder)
chain: B1 chain with L39M, Y82L
  apparent Kd (screen): 1.4 nM

B15: E5F (designed binder)
chain: B1 chain with E5F, Y82L
  apparent Kd (screen): 0.653 nM

B16: E101S (designed binder)
chain: B1 chain with Y82L, E101S
  apparent Kd (screen): 0.956 nM

B17: E84Y (designed binder)
chain: B1 chain with Y82L, E84Y
  apparent Kd (screen): 0.718 nM

B18: Y37T (designed binder)
chain: B1 chain with Y37T, Y82L
  apparent Kd (screen): 10.4 nM

B19: E44S (designed binder)
chain: B1 chain with E44S, Y82L
  apparent Kd (screen): 13.8 nM

B20: Q48H (designed binder)
chain: B1 chain with Q48H, Y82L
  apparent Kd (screen): 0.653 nM

B21: M1F (designed binder)
chain: B1 chain with M1F, Y82L
  apparent Kd (screen): 0.593 nM

B22: K66C (designed binder)
chain: B1 chain with K66C, Y82L
  apparent Kd (screen): 1.4 nM

B23: R21S (designed binder)
chain: B1 chain with R21S, Y82L
  apparent Kd (screen): 0.539 nM

B24: R92I (designed binder)
chain: B1 chain with Y82L, R92I
  apparent Kd (screen): 0.49 nM

B25: L74T (designed binder)
chain: B1 chain with L74T, Y82L
  apparent Kd (screen): 2.48 nM

B26: R97M (designed binder)
chain: B1 chain with Y82L, R97M
  apparent Kd (screen): 0.539 nM

B27: K66I (designed binder)
chain: B1 chain with K66I, Y82L
  apparent Kd (screen): 0.869 nM

B28: S51I (designed binder)
chain: B1 chain with S51I, Y82L
  apparent Kd (screen): 1.86 nM

B29: Q34P (designed binder)
chain: B1 chain with Q34P, Y82L
  apparent Kd (screen): 0.49 nM

B30: A17W (designed binder)
chain: B1 chain with A17W, Y82L
  apparent Kd (screen): 0.539 nM

B31: M1E (designed binder)
chain: B1 chain with M1E, Y82L
  apparent Kd (screen): 0.593 nM

B32: L52G (designed binder)
chain: B1 chain with L52G, Y82L
  apparent Kd (screen): 1.27 nM

B33: K103L (designed binder)
chain: B1 chain with Y82L, K103L
  apparent Kd (screen): 1.86 nM

B34: A80E (designed binder)
chain: B1 chain with A80E, Y82L
  apparent Kd (screen): 0.49 nM

B35: E33W (designed binder)
chain: B1 chain with E33W, Y82L
  apparent Kd (screen): 0.593 nM

B36: A90V (designed binder)
chain: B1 chain with Y82L, A90V
  apparent Kd (screen): 0.593 nM

B37: V55M (designed binder)
chain: B1 chain with V55M, Y82L
  apparent Kd (screen): 2.73 nM

B38: V55S (designed binder)
chain: B1 chain with V55S, Y82L
  apparent Kd (screen): 1.86 nM

B39: E36M (designed binder)
chain: B1 chain with E36M, Y82L
  apparent Kd (screen): 0.49 nM

B40: V60S (designed binder)
chain: B1 chain with V60S, Y82L
  apparent Kd (screen): 0.446 nM

B41: F31G (designed binder)
chain: B1 chain with F31G, Y82L
  apparent Kd (screen): 0.869 nM

B42: A42H (designed binder)
chain: B1 chain with A42H, Y82L
  apparent Kd (screen): 3 nM

B43: L41V (designed binder)
chain: B1 chain with L41V, Y82L
  apparent Kd (screen): 0.869 nM

B44: E67N (designed binder)
chain: B1 chain with E67N, Y82L
  apparent Kd (screen): 1.4 nM

B45: A42I (designed binder)
chain: B1 chain with A42I, Y82L
  apparent Kd (screen): 0.593 nM

B46: E16G (designed binder)
chain: B1 chain with E16G, Y82L
  apparent Kd (screen): 0.593 nM

B47: E73I (designed binder)
chain: B1 chain with E73I, Y82L
  apparent Kd (screen): 0.718 nM

B48: A76F (designed binder)
chain: B1 chain with A76F, Y82L
  apparent Kd (screen): 0.446 nM

B49: V85M (designed binder)
chain: B1 chain with Y82L, V85M
  apparent Kd (screen): 0.49 nM

B50: A98T (designed binder)
chain: B1 chain with Y82L, A98T
  apparent Kd (screen): 0.539 nM

B51: L39S (designed binder)
chain: B1 chain with L39S, Y82L
  apparent Kd (screen): 2.25 nM

B52: R13Y (designed binder)
chain: B1 chain with R13Y, Y82L
  apparent Kd (screen): 0.335 nM

B53: A69N (designed binder)
chain: B1 chain with A69N, Y82L
  apparent Kd (screen): 0.653 nM

B54: R92Q (designed binder)
chain: B1 chain with Y82L, R92Q
  apparent Kd (screen): 0.304 nM

B55: H78A (designed binder)
chain: B1 chain with H78A, Y82L
  apparent Kd (screen): 0.539 nM
